From US20030109416A1 (MOCHIDA PHARMACEUTICAL, published 2003)

Target: T1, extracellular domain of the human Fas ligand (produced in Pichia pastoris GS115) (human, UniProt P48023 103-281)
T1 construct: extracellular domain; also called human Fas ligand extracellular domain
T1 sequence (looked up): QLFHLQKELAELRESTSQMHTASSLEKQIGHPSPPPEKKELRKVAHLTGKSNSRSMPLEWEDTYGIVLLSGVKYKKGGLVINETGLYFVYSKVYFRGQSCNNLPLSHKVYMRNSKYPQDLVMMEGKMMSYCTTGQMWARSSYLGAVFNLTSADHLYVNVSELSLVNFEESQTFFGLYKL
Experiment: affinity chromatography on immobilized hFas-Fc

B1: hFas-Fc (chimeric protein of the extracellular domain of the human Fas antigen and Fc region of human IgG1) (Fc fusion, UniProt P25445 26-173, looked up)
chain: QVTDINSKGLELRKTVTTVETQNLEGLHHDGQFCHKPCPPGERKARDCTVNGDEPDCVPCQEGKEYTDKAHFSSKCRRCRLCDEGHGLEVEINCTRTQNTKCRCKPNFFCNSTVCEHCDPCTKCEHGIIKECTLTSNTKCKEEGSRSN
notes: extracellular domain; The construct limits are only in WO 95/13293; also called human Fas-Fc; product of plasmid pBF-Fc1; not shown: Fc region of human IgG1
binding result: binds
